The IC50 is the concentration that gives 50% inhibition. The term Kd denotes a measure of binding affinity in units of concentration. As a reminder, the stoichiometry N is the number of molecules, sites or subunits per partner or assembly. By EC50 is commonly meant the concentration giving half of the maximal effect. Low values mean greater potency, high ones weaker potency.

This note sets out measurements from paper PMC10143822, “Structural Adaptation of the Single-Stranded DNA-Binding Protein C-Terminal to DNA Metabolizing Partners Guides Inhibitor Design” (Pharmaceutics, 2023).

Where a SMILES comes first, the peptide text is derived from it. Primed or numbered codes have the meaning given here. Where no end group is shown, it is not given here. [ ]: non-standard residue; d: D form. 5,6‑carboxyfluorescein = 5,6-carboxyfluorescein; Phe(4-CF3) = N[C@@H](Cc1ccc(C(F)(F)F)cc1)C(=O)O; Phe(3-Cl) = N[C@@H](Cc1cccc(Cl)c1)C(=O)O; Phe(4-Cl) = N[C@@H](Cc1ccc(Cl)cc1)C(=O)O; β3hD = NC(CC(=O)O)CC(=O)O; Nle = CCCC[C@H](N)C(=O)O; Pip′ = not defined here

Assay [1] deals with T1, ExoI (Escherichia coli, UniProt P04995).
T1 construct: His-tag (cleaved yes); host or cells: E. coli BL21 (DE3) pLysS
As to the kind of experiment: biochemical. The format is binding, E. coli. The method, then:
Triplicate measurements were performed using a Clariostar Plus Microplate Reader in 384-well plates for all fluorescence anisotropy (FA) experiments. The settings were 25 °C, excitation at 485 nm, emission at 510 nm, settling time of 0.2 s, and 200 flashes per well.
Competition fluorescence anisotropy experiments were carried out as follows: protein (0.5 μM either ExoI or RecO) was incubated with 50 nM F-wtSSB peptide and 0–500 μM unlabeled wtSSB (or a variant) peptide for 30 min at room temperature. For direct fluorescence anisotropy measurements, 16 µM ExoI and 7.5 µM RecO were used in the first well. After serial dilution, either 50 nM of F-mSSB or F-sSSB was added to the wells and then incubated for 30 min. Buffers used included 20 mM Tris-HCl (pH 8.0), 100 mM NaCl, 1 mM MgCl2, 1 mM 2-mercaptoethanol, 10% (v/v) glycerol, for ExoI and 20 mM Tris-HCl (pH 8.0), 200 mM NaCl, 1 mM 2-mercaptoethanol, 10% (v/v) glycerol, and 0.01% Triton-X 100 for RecO [37].
Fluorescence anisotropy values were normalized and are shown as bound fractions (BF, %). BF=r−rmin/λ(rmax−r)+r−rmin, I=2∗PG+S, r=S−PG/I, where r: anisotropy, I: total intensity, P: perpendicular intensity, S: parallel intensity, G: an instrument factor set to 1, BF: ligand fraction bound, and λ=λbound/λunbound=1 .
Competitive fluorescence anisotropy was analyzed in Origin Pro 9.5, and IC50 values were determined using the Logistic Nonlinear fit function and are shown as plots for each mutated position for each protein in Figures S4 and S6. EC50 values from direct fluorescence anisotropy titrations were plotted in Origin 9.5. Values were determined using the Logistics Nonlinear fit function.

Assay [2] concerns the target T1, ExoI. The assay can be described thus: Isothermal titration calorimetry with ExoI. Type of assay: binding, E. coli. The method, then: Isothermal titration calorimetry (ITC) experiments were performed using a MicroCal VP-ITC titration microcalorimeter. ExoI was dialyzed extensively against the indicated buffer and cleared through centrifugation at 14,000 rpm for 15 min at 4 °C. RecO was subjected to a quick buffer exchange using an Amicon Ultra ultrafiltration device (Sigma). Protein concentrations were determined after the buffer exchange procedure.
The raw data were integrated using NITPIC [39]. The binding parameters, association equilibrium constant (KA), binding enthalpy (ΔH), and binding entropy (ΔS) were obtained by fitting the titration curves to a model of A + B = C in SEDPHAT [40]. Stoichiometry was fixed to 1:1 and the incompetent fraction was fitted for the protein concentration.
A general note: Isothermal titration calorimetry measures the heat released or taken up as one component is titrated into another.

Assay [3] has as its target T2, Escherichia coli RecO (Escherichia coli, UniProt P0A7H3 1-242).
T2 construct: RecO of Escherichia coli, synthetic gene in pET28a+ with a TEV site at the 5' end; The His tag was cut off with TEV protease only for the purified protein; source: E. coli Rosetta, purified (Ni-NTA, heparin); also in cell lysate (pull-down); not shown: His tag, N-terminal, cleaved
T2 sequence: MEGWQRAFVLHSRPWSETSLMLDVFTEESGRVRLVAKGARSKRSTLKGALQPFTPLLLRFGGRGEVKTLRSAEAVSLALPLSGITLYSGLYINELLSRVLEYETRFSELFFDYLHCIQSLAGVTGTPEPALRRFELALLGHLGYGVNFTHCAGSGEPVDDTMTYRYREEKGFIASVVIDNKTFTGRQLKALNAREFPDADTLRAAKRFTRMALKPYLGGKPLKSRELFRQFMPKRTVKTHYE
As to the kind of experiment: fluorescence polarisation; competition fluorescence anisotropy: 0.5 µM RecO, 50 nM F-wtSSB tracer, 0–500 µM unlabeled peptide, 30 min at room temperature, read at 25 °C; 20 mM Tris-HCl pH 8.0, 200 mM NaCl, 1 mM 2-mercaptoethanol, 10% glycerol, 0.01% Triton-X 100. The settings on record: both partners purified. For orientation: Polarisation of emitted light reports the rotation of a fluorescent probe.

Assay [4] deals with T3, E. coli Exonuclease I (E. coli, UniProt P04995 1-471).
T3 construct: Exonuclease I of E. coli, from plasmid pET14b-E. coli Exonuclease I (Addgene 104552); The His tag was cut off with thrombin only for the purified protein; also called ExoI; Exol; source: E. coli BL21 (DE3) pLysS, purified (Ni-NTA, heparin); also in cell lysate (pull-down)
T3 sequence: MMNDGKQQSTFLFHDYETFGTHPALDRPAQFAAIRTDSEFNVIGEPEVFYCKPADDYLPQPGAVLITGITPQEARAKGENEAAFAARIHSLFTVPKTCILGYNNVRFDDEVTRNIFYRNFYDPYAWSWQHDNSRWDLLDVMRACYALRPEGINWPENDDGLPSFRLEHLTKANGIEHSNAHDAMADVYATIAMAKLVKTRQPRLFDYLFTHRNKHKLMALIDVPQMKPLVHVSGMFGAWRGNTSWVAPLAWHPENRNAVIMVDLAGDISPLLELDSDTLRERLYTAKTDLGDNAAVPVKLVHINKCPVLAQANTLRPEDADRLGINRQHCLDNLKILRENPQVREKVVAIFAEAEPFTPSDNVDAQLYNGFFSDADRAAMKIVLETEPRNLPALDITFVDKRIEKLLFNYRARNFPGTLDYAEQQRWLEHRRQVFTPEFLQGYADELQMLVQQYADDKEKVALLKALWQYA
The assay can be described thus: fluorescence polarisation; competition fluorescence anisotropy: 0.5 µM ExoI, 50 nM F-wtSSB tracer, 0–500 µM unlabeled peptide, 30 min at room temperature, read at 25 °C; 20 mM Tris-HCl pH 8.0, 100 mM NaCl, 1 mM MgCl2, 1 mM 2-mercaptoethanol, 10% glycerol. The settings on record: both partners purified.

The target of assay [5] is T3, E. coli Exonuclease I. The assay can be described thus: ITC; peptide in the syringe titrated into ExoI in the cell; 20 mM Tris–HCl pH 8.0, 100 mM NaCl, 1 mM MgCl2, 4% glycerol, 1 mM β-mercaptoethanol; model A + B = C, stoichiometry fixed to 1:1, incompetent fraction fitted. The settings on record: both partners purified.
Assay [6] deals with T2, Escherichia coli RecO. The assay can be described thus: ITC; peptide in the syringe titrated into RecO in the cell; 50 mM HEPES pH 7.5, 50 mM NaCl, 25% glycerol, 1 mM TCEP; model A + B = C, stoichiometry fixed to 1:1, incompetent fraction fitted. The settings on record: both partners purified.
Assay [7] addresses T2, Escherichia coli RecO. The assay can be described thus: fluorescence polarisation; competition fluorescence anisotropy: 0.5 µM RecO, 50 nM F-wtSSB tracer, 0–500 µM unlabeled peptide, 30 min at room temperature, read at 25 °C; 20 mM Tris-HCl pH 8.0, 200 mM NaCl, 1 mM 2-mercaptoethanol, 10% glycerol, 0.01% Triton-X 100. The settings on record: both partners purified. This is another data set of the same source.

Assay [8] addresses R2-sSSB with an N-terminal biotin tag, on Streptavidin DynaBeads (E. coli). As to the kind of experiment: affinity purification with mass spectrometry; pull-down: 1 µM biotin peptide on Streptavidin DynaBeads, 30 min with E. coli lysate holding 1 µM recombinant ExoI or RecO; on-pellet tryptic digestion, nanoLC-MS/MS.
The target in assay [9] is T3, E. coli Exonuclease I. As to the kind of experiment: fluorescence polarisation; direct fluorescence anisotropy: ExoI serially diluted from 16 µM, 50 nM fluorescein-labelled peptide, 30 min, 25 °C; 20 mM Tris-HCl pH 8.0, 100 mM NaCl, 1 mM MgCl2, 1 mM 2-mercaptoethanol, 10% glycerol. The settings on record: both partners purified.
Assay [10] concerns the target T2, Escherichia coli RecO. As to the kind of experiment: fluorescence polarisation; direct fluorescence anisotropy: RecO serially diluted from 7.5 µM, 50 nM fluorescein-labelled peptide, 30 min, 25 °C; 20 mM Tris-HCl pH 8.0, 200 mM NaCl, 1 mM 2-mercaptoethanol, 10% glycerol, 0.01% Triton-X 100. The settings on record: both partners purified.
In assay [11] the target is T3, E. coli Exonuclease I. As to the kind of experiment: fluorescence polarisation; competition fluorescence anisotropy: 0.5 µM ExoI, 50 nM F-wtSSB tracer, 0–500 µM unlabeled peptide, 30 min at room temperature, read at 25 °C; 20 mM Tris-HCl pH 8.0, 100 mM NaCl, 1 mM MgCl2, 1 mM 2-mercaptoethanol, 10% glycerol. To be noted: both partners purified. This is another data set of the same source.

Assay [12] concerns the target E1-sSSB with an N-terminal biotin tag, on Streptavidin DynaBeads (E. coli). As to the kind of experiment: affinity purification with mass spectrometry; pull-down: 1 µM biotin peptide on Streptavidin DynaBeads, 30 min with E. coli lysate holding 1 µM recombinant ExoI or RecO; on-pellet tryptic digestion, nanoLC-MS/MS.

T1 sequence (P04995 whole entry): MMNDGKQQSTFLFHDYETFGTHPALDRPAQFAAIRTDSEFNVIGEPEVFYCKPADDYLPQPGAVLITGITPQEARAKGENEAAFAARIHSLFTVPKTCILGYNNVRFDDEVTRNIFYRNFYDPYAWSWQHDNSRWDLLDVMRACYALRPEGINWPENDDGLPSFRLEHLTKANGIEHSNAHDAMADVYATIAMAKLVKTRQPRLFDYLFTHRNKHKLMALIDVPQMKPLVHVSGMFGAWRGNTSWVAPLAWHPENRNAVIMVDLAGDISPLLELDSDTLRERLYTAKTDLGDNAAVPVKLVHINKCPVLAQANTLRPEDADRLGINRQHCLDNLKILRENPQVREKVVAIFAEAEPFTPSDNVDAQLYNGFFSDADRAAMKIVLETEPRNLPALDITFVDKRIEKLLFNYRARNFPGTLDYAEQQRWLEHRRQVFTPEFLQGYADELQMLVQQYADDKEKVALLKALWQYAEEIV

For the molecule `CC[C@H](C)[C@H](NC(=O)[C@H](CC(=O)O)NC(=O)[C@H](CC(=O)O)NC(=O)[C@H](CC(=O)O)NC(=O)[C@H](Cc1ccc(C(F)(F)F)cc1)NC(=O)[C@H](CC(=O)O)NC(C)=O)C(=O)N1CCC[C@H]1C(=O)N[C@@H](Cc1ccc(C(F)(F)F)cc1)C(=O)O` [E2-sSSB-Ct] (Ac-D[Phe(4-CF3)]DDDIP[Phe(4-CF3)]-OH), at ExoI [1], the IC50 worked out at 350 nM. For the same molecule, the Kd on ExoI [2] is 40 nM.

B1: wtSSB-Ct, octapeptide identical to the SSB C-terminal acidic tip (residues 171-178 of SSB) (peptide)
peptide: Ac-DFDDDIPF
notes: also called wild-type SSB-Ct; source: synthetic peptide (solid phase, HPLC purified)
In the assay with Escherichia coli RecO [3], B1 had an IC50 of 4660 ± 240 nM. This molecule also returned an IC50 with E. coli Exonuclease I [4] of 4540 ± 340 nM. Moreover, in the assay with E. coli Exonuclease I [5], the Kd came out at 3070 nM, the dH is -10.7 kcal/mol and the “stoichiometry N” value was 0.959. In addition, in the assay with Escherichia coli RecO [6], the Kd was found to be 140 nM, the dH was -7.54 kcal/mol and the “stoichiometry N” value turned out to be 1.

B2: mSSB-Ct Leu6 (unlabelled single mutant) (peptide)
peptide: Ac-DFDDDLPF
notes: E. coli SSB C-terminal tip (SSB-Ct), residues 171-178; numbers count on: the octapeptide (position 1 = SSB residue 171); also called isoleucine to leucine at position 6; source: synthetic peptide
As for B2, in the assay with Escherichia coli RecO [7], the IC50 was found to be 3220 nM.

B3: R2-sSSB-Ct (Asp–4Cl-Phe–Asp–Asp–Asp–Ile–Pro–3Cl-Phe) (peptide)
peptide: Ac-D[Phe(4-Cl)]DDDIP[Phe(3-Cl)]
notes: SSB-Ct of E. coli SSB (residues 171-178), printed in three-letter code; F2 stands for 4Cl-Phe, F8 for 3Cl-Phe; numbers count on: the octapeptide (position 1 = SSB residue 171); source: synthetic peptide
B3: the IC50 with Escherichia coli RecO [7] stood at 590 nM. Besides, in the assay with Escherichia coli RecO [6], the Kd is 40 nM, the dH is -23.5 kcal/mol and the “stoichiometry N” value was determined as 1.

B4: Escherichia coli RecO (natural protein)
chain: T2 sequence
For the molecule B4, the fold enrichment as compared to wtSSB-Ct in assay [8] was 10 fold.

For {5,6‑carboxyfluorescein}-DFDDD[Nle]PF [F-nLe6 (fluorescein-labelled single mutant)], the EC50 in the assay with E. coli Exonuclease I [9] and with Escherichia coli RecO [10] was 200 ± 10 nM each time.

B5: E1-sSSB-Ct (Glu–4-CF3-Phe–Asp–β^3-Asp–Glu–Leu–Pip–4-CF3-Phe) (peptide)
chain: Ac-E[Phe(4-CF3)]D[β3hD]EL[Pip′][Phe(4-CF3)]
modifications: not fully specified; printed as E1-sSSB-Ct (Glu–4-CF3-Phe–Asp–β^3-Asp–Glu–Leu–Pip–4-CF3-Phe)
Consider B5, for which, in the assay with E. coli Exonuclease I [5], the Kd came to 20 nM, the dH was -17.4 kcal/mol and the “stoichiometry N” value was found to be 1. In addition, in the assay with E. coli Exonuclease I [11], the IC50 was 170 nM.

As to Ac-DFDDD[Nle]PF [mSSB-Ct nLe6 (unlabelled single mutant)], the IC50 in the assay with Escherichia coli RecO [7] turned out to be 2550 nM.

B6: fluorescein-labeled wtSSB-Ct (peptide)
peptide: {5,6‑carboxyfluorescein}-GGDFDDDIPF
notes: two glycines between the 5,6-carboxyfluorescein and the peptide; also called F-SSB-Ct; F-wtSSB-Ct; source: synthetic peptide (solid phase, HPLC purified)
On to B6, for which the EC50 with E. coli Exonuclease I [9] is 350 ± 40 nM; in the assay with Escherichia coli RecO [10], 370 ± 30 nM.

B7: F-Glu5 (fluorescein-labelled single mutant) (peptide)
peptide: {5,6‑carboxyfluorescein}-GGDFDDEIPF
notes: two glycines between the 5,6-carboxyfluorescein and the peptide; E. coli SSB-Ct, residues 171-178; numbers count on: the octapeptide (position 1 = SSB residue 171); One of Compounds 54-62 of the Supplementary Material; also called F-mSSB Glu5; source: synthetic peptide
As for B7, the figures for the EC50 with E. coli Exonuclease I [9] and with Escherichia coli RecO [10] were 110 ± 10 nM and 200 ± 20 nM, respectively.

B8: E. coli Exonuclease I (enzyme)
chain: T3 sequence
As for B8, the fold enrichment as compared to wtSSB-Ct in [12] worked out at 2 fold.
